Columns and labels:
[1] = target: von Willebrand factor purified from human plasma cryoprecipitate (UniProt P04275)
[2] = target: von Willebrand factor purified from human plasma cryoprecipitate, P04275

Q: Which “vWF-cleaving activity (qualitative)” value [1] does the source give for “W897stop variant of the vWF-cleaving protease (lacking the region between the C-terminus and position W897)” here?
A: a variant lacking a region between the C-terminus and the position W897 was found to have activity, although it was the result of qualitative analysis

B1: vWF-cleaving protease derived from human plasma (protein)
chain: AAGGILHLELLVAVGPDVFQAHQEDTERYVLTNLNIGAELLRDPSLGAQFRVHLVKMVILTEPEGAPNITANLTSSLLSVCGWSQTINPEDDTDPGHADLVLYITRFDLELPDGNRQVRGVTQLGGACSPTWSCLITEDTGFDLGVTIAHEIGHSFGLEHDGAPGSGCGPSGHVMASDGAAPRAGLAWSPCSRRQLLSLLSAGRARCVWDPPRPQPGSAGHPPDAQPGLYYSANEQCRVAFGPKAVACTFAREHLDMCQALSCHTDPLDQSSCSRLLVPLLDGTECGVEKWCSKGRCRSLVELTPIAAVHGRWSSWGPRSPCSRSCGGGVVTRRRQCNNPRPAFGGRACVGADLQAEMCNTQACEKTQLEFMSQQCARTDGQPLRSSPGGASFYHWGAAVPHSQGDALCRHMCRAIGESFIMKRGDSFLDGTRCMPSGPREDGTLSLCVSGSCRTFGCDGRMDSQQVWDRCQVCGGDNSTCSPRKGSFTAGRAREYVTFLTVTPNLTSVYIANHRPLFTHLAVRIGGRYVVAGKMSISPNTTYPSLLEDGRVEYRVALTEDRLPRLEEIRIWGPLQEDADIQVYRRYGEEYGNLTRPDITFTYFQPKPRQAWVWAAVRGPCSVSCGAGLRWVNYSCLDQARKELVETVQCQGSQQPPAWPEACVLEPCPPYWAVGDFGPCSASCGGGLRERPVRCVEAQGSLLKTLPPARCRAGAQQPAVALETCNPQPCPARWEVSEPSSCTSAGGAGLALENETCVPGADGLEAPVTEGPGSVDEKLPAPEPCVGMSCPPGWGHLDATSAGEKAPSPWGSIRTGAQAAHVWTPAAGSCSVSCGRGLMELRFLCMDSALRVPVQEELCGLASKPGSRREVCQAVPCPARWQYKLAACSVSCGRGVVRRILYCARAHGEDDGEEILLDTQCQGLPRPEPQEACSLEPCPPRWKVMSLGPCSASCGLGTARRSVACVQLDQGQDVEVDEAACAALVRPEASVPCLIADCTYRWHVGTWMECSVSCGDGIQRRRDTCLGPQAQAPVPADFCQHLPKPVTVRGCWAGPCVGQGTPSLVPHEEAAAPGRTTATPAGASLEWSQARGLLFSPAPQPRRLLPGPQENSVQSSACGRQHLEPTGTIDMRGPGQADCAVAIGRPLGEVVTLRVLESSLNCSAGDMLLLWGRLTWRKMCRKLLDMTFSSKTNTLVVRQRCGRPGGGVLLRYGSQLAPETFYRECDMQLFGPWGEIVSPSLSPATSNAGGCRLFINVAPHARIAIHALATNMGAGTEGANASYILIRDTHSLRTTAFHGQQVLYWESESSQAEMEFSEGFLKAQASLRGQYWTLQSWVPEMQDPQSWKGKEGT
Q: With B1 as the molecule, how does the vWF-cleaving activity [2] read?
A: activity derived from the cryoprecipitate and the FI paste were found to cleave the peptide bond between residues Tyr 842 and Met 843
